Data on 1 protein can be found in publication PMC10934782, “Electrochemical Sensors Based on Self-Assembling Peptide/Carbon Nanotube Nanocomposites for Sensitive Detection of Bisphenol A” (Sensors (Basel, Switzerland), 2024).

The data set concerns the molecule itself. The experiment in a line: negative-stain TEM + turbidity + circular dichroism + rheology; Z23 alone (no MWCNTs) in PBS, assembly triggered by adding 10x PBS to the aqueous peptide solution; room temperature (rheology 1 wt% in PBS at 25 °C); turbidity at 313 nm. On the technique in general: CD spectra are sensitive to the conformation of chiral molecules.

B1: cationic amphiphilic self-assembling peptide (SAP) Z23 (peptide)
peptide: Ac-KFKFQFKFK-NH2
notes: Designed self-assembling peptide; forms nanofibers and a hydrogel in PBS; source: synthetic peptide; bought: Shanghai Top-peptide Biotechnology Co. Ltd. (purity > 95%)
Take B1: the binding result is reported as “binds”.
